Measured values: the Human Domainome abundance scans (Beltran et al. 2025)
± gives the uncertainty stated by the source.

B1: Steroid hormone receptor ERR2, residues 100 to 176; numbered along this chain, O95718 (parent)
chain: KRLCLVCGDIASGYHYGVASCEACKAFFKRTIQGNIEYSCPATNECEITKRRRKSCQACRFMKCLKVGMLKEGVRLD

Variants of: B1
Experiment: abundance fitness (aPCA) (normalised: wild type 0, dead -1); higher = more abundant; growth selection in yeast, the domain comes from the species named
Settings: Homo sapiens

Abundance fitness, by site and new letter:
I32: N -0.568 ± 0.19; P -0.589 ± 0.16; Q -0.422 ± 0.082; S -0.184 ± 0.059; T -0.222 ± 0.067; V 0.055 ± 0.044
Q33: A -0.075 ± 0.054; C -0.114 ± 0.068; D -0.081 ± 0.082; E -0.03 ± 0.06; F -0.577 ± 0.22; G -0.165 ± 0.043; H -0.229 ± 0.11; I -0.697 ± 0.22; K -0.212 ± 0.094; L -0.146 ± 0.051; M -0.279 ± 0.087; N -0.383 ± 0.13; R -0.307 ± 0.047; S -0.252 ± 0.067; T -0.193 ± 0.089; V -0.148 ± 0.048; W -0.411 ± 0.073; Y -0.054 ± 0.14
G34: A 0.135 ± 0.043; C -0.227 ± 0.078; D 0.116 ± 0.092; E 0.157 ± 0.051; F 0.144 ± 0.072; H -0.282 ± 0.12; I -0.336 ± 0.2; M -0.041 ± 0.062; N -0.058 ± 0.15; P -0.904 ± 0.18; Q 0.254 ± 0.057; R -0.033 ± 0.037; T -0.088 ± 0.063; V -0.186 ± 0.046; W -0.08 ± 0.048; Y 0.075 ± 0.1
N35: A 0.069 ± 0.045; C -0.12 ± 0.073; D 0.111 ± 0.079; E 0.157 ± 0.046; F -0.275 ± 0.12; G 0.271 ± 0.035; H 0.031 ± 0.094; I -0.593 ± 0.17; K 0.027 ± 0.055; L -0.298 ± 0.05; M -0.317 ± 0.067; P 0.012 ± 0.069; Q 0.05 ± 0.055; R -0.047 ± 0.038; S -0.129 ± 0.053; T -0.017 ± 0.056; V -0.133 ± 0.045; W -0.298 ± 0.057; Y -0.178 ± 0.12
I36: A -0.032 ± 0.048; C -0.037 ± 0.076; D -0.062 ± 0.077; F -0.095 ± 0.11; G -0.273 ± 0.041; H -0.167 ± 0.11; K -0.129 ± 0.062; L -0.162 ± 0.048; M -0.074 ± 0.056; N -0.185 ± 0.13; P -0.182 ± 0.081; Q -0.16 ± 0.064; R -0.26 ± 0.043; T -0.288 ± 0.078; V 0.003 ± 0.044; W -0.231 ± 0.053; Y -0.235 ± 0.09
E37: C -0.158 ± 0.1; D -0.423 ± 0.12; F -0.851 ± 0.42; G -0.122 ± 0.041; H -0.19 ± 0.14; I -0.341 ± 0.18; K -0.532 ± 0.13; L -0.657 ± 0.09; M -0.654 ± 0.14; N -0.575 ± 0.21; P -0.507 ± 0.14; Q -0.41 ± 0.1; R -0.371 ± 0.053; T -0.796 ± 0.21; W -0.543 ± 0.079; Y -0.745 ± 0.26
Y38: A -0.554 ± 0.085; C -0.293 ± 0.1; D -0.979 ± 0.37; E -0.586 ± 0.11; F -0.037 ± 0.13; G -0.394 ± 0.057; H -0.196 ± 0.17; I -0.421 ± 0.36; K -0.725 ± 0.15; L -0.398 ± 0.061; M -0.548 ± 0.11; P -0.547 ± 0.13; Q -0.841 ± 0.16; R -0.347 ± 0.049; S -0.518 ± 0.08; T -0.636 ± 0.13; V -0.541 ± 0.089; W 0.097 ± 0.047
S39: A 0.319 ± 0.038; C 0.189 ± 0.06; D 0.441 ± 0.076; E 0.303 ± 0.043; F 0.374 ± 0.1; G 0.19 ± 0.036; H 0.103 ± 0.13; I 0.19 ± 0.086; K 0.305 ± 0.051; L 0.283 ± 0.038; M 0.39 ± 0.048; N 0.397 ± 0.1; P 0.089 ± 0.067; T 0.254 ± 0.053; V 0.294 ± 0.037; W 0.22 ± 0.047; Y 0.283 ± 0.089
C40: A -0.91 ± 0.12; D -0.982 ± 0.37; E -0.726 ± 0.11; F -0.876 ± 0.31; G -0.711 ± 0.068; I -0.443 ± 0.17; K -0.781 ± 0.17; M -0.742 ± 0.13; N -0.586 ± 0.26; P -0.684 ± 0.13; Q -0.604 ± 0.12; R -0.734 ± 0.074; S -0.632 ± 0.094; V -0.688 ± 0.082; W -0.94 ± 0.12; Y -0.247 ± 0.19
P41: A 0.056 ± 0.043; C -0.045 ± 0.057; D 0.213 ± 0.059; E 0.057 ± 0.053; F -0.214 ± 0.1; G 0.128 ± 0.039; H -0.028 ± 0.087; I -0.071 ± 0.078; K -0.037 ± 0.06; L -0.134 ± 0.045; M -0.161 ± 0.061; N 0.123 ± 0.074; Q -0.045 ± 0.063; R -0.158 ± 0.042; S -0.137 ± 0.047; T -0.147 ± 0.063; V 0.093 ± 0.04; W -0.253 ± 0.065; Y 0.018 ± 0.069
A42: C -0.501 ± 0.1; D 0.045 ± 0.065; E 0.027 ± 0.055; F -0.209 ± 0.09; G -0.025 ± 0.037
